Experiments:
patients with R/R NHL = conditions: human, in vivo; cited from earlier work
[1] = test system: patients with relapsed or refractory follicular lymphoma (R/R FL); assay: Phase Ib/II study, FL dose-escalation phase: safety (adverse events, DLTs, RP2D) of G+Pola+V; assay type: in vivo; conditions: in combination with venetoclax 800 mg and obinutuzumab 1000 mg
Excerpt: This Example describes a Phase Ib/II study evaluating the safety and efficacy of obinutuzumab (G) in combination with polatuzumab vedotin (Pola) and venetoclax (V) in patients with relapsed or refractory follicular lymphoma (R/R FL) and rituximab (R) in combination with polatuzumab vedotin and venetoclax in patients with relapsed or refractory diffuse large B-cell lymphoma (R/R DLBCL).
This Phase Ib/II, open-label, multicenter, non-randomized study evaluated the safety, efficacy, and pharmacokinetics of obinutuzumab (G)+Polatuzumab vedotin (Pola)+venetoclax (V) in patients with R/R FL and rituximab (R)+Pola+V in patients with R/R DLBCL.
This dose-escalation phase included FL patients only.
All patients enrolled in the dose-escalation phase received induction treatment, administered in 21-day cycles as shown in Table 1. […]
The observation period was based on evaluation of dose-limiting toxicities (DLTs) in cycle 1. […] If no additional DLTs were reported, the next dose could be evaluated. […]
Adverse events are assessed according to the adverse event severity grading scale for the NCI CTCAE (v4.0). […]
Laboratory assessments and adverse events (AEs) were assessed throughout the study, with complete blood counts performed on days 1, 8, and 15 of cycle 1, on day 1 of cycles 2-6, and monthly during maintenance treatment. […]

| Substance | Incidence of Grade 3-4 neutropenia (patients with R/R NHL) [%] | Recommended Phase II dose (RP2D) [1] [mg/kg] |
| --- | --- | --- |
| obinutuzumab | 5 |  |
| polatuzumab vedotin: anti-CD79b immunoconjugate, CAS Registry Number 1313206-42-6; humanized antibody conjugated to MMAE via mc-val-cit-PABC linker |  | 1.8 |
